These results are taken from paper PMC5137435.

Some targets named below: WT1 ZF2-4 Q369K (-KTS) (Homo sapiens, UniProt P19544-4 350-437, Q369K); WT1 ZF2-4 Q369H (-KTS) (Homo sapiens, UniProt P19544-4 350-437, Q369H); WT1 ZF2-4 Q369P (-KTS) (Homo sapiens, UniProt P19544-4 350-437, Q369P); Egr1 three-finger domain (UniProt P18146 335-423).
Common to all, as to test: fluorescence polarization
(In fluorescence polarisation assays a small probe gives low polarisation when free and higher when bound to something large.)

Data set [1] addresses T1, WT1 ZF2-4 Q369R (-KTS) (Homo sapiens, UniProt P19544-4 350-437, Q369R).
Data set [2] concerns the target T1, WT1 ZF2-4 Q369R (-KTS). The source holds these as a separate data set.

B1: Fig1 oligo X=G (dsDNA)
DNA 1: AGCGTGGGGGT
DNA 2: TACCCCCACGC
modifications: 5mC at strand 1 pos 3 and strand 2 pos 9
Turning to B1, the Kd – broadly, a measure of binding affinity in units of concentration – in the data set with WT1 ZF2-4 Q369K (-KTS) was 14 nM; with WT1 ZF2-4 Q369H (-KTS), under 3 nM; with WT1 ZF2-4 Q369R (-KTS) [1] it was 24 nM.

B2: Fig1 oligo X=A (dsDNA)
DNA 1: AGCGTGGGAGT
DNA 2: TACTCCCACGC
modifications: 5mC at strand 1 pos 3 and strand 2 pos 9
In turn, B2 returned a Kd with WT1 ZF2-4 Q369H (-KTS) of 8 nM. Besides, the binding signal in the data set with WT1 ZF2-4 Q369R (-KTS) [2] is ~5 fold lower affinity than X=G.

B3: Fig1 oligo X=T (dsDNA)
DNA 1: AGCGTGGGTGT
DNA 2: TACACCCACGC
modifications: 5mC at strand 1 pos 3 and strand 2 pos 9
Consider B3, for which the binding result with WT1 ZF2-4 Q369P (-KTS) and with Egr1 three-finger domain was “binds” each time.
